Experimental data from patent US20240392262A1, “TRANSPOSASE AND USES THEREOF” (Poseida Therapeutics, Inc., published 2024).
Substitutions are numbered along the chain they refer to.

T1: GFP1 Right TALEN NT-G (synthetic construct)
T1 chain: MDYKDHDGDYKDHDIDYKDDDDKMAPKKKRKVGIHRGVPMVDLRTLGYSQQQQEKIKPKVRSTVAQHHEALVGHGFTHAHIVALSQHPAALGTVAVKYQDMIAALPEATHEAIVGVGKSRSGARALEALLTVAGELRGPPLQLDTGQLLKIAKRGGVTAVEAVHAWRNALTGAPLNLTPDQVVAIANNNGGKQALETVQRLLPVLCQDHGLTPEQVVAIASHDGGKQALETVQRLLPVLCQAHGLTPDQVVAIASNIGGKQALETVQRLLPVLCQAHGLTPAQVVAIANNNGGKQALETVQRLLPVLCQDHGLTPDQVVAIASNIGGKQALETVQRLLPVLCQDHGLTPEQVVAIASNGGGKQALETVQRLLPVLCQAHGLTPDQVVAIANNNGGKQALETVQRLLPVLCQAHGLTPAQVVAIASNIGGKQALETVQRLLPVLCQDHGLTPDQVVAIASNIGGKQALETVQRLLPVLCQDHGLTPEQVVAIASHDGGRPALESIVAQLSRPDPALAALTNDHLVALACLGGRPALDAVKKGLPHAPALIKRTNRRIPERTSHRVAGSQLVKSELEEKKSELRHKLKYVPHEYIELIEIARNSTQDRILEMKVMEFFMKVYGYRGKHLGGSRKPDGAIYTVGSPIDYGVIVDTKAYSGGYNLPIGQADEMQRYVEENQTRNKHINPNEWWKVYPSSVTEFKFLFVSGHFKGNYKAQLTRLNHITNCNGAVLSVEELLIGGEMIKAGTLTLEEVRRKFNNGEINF

T2: GFP1 Right TALEN NT-betaN (synthetic construct)
T2 chain: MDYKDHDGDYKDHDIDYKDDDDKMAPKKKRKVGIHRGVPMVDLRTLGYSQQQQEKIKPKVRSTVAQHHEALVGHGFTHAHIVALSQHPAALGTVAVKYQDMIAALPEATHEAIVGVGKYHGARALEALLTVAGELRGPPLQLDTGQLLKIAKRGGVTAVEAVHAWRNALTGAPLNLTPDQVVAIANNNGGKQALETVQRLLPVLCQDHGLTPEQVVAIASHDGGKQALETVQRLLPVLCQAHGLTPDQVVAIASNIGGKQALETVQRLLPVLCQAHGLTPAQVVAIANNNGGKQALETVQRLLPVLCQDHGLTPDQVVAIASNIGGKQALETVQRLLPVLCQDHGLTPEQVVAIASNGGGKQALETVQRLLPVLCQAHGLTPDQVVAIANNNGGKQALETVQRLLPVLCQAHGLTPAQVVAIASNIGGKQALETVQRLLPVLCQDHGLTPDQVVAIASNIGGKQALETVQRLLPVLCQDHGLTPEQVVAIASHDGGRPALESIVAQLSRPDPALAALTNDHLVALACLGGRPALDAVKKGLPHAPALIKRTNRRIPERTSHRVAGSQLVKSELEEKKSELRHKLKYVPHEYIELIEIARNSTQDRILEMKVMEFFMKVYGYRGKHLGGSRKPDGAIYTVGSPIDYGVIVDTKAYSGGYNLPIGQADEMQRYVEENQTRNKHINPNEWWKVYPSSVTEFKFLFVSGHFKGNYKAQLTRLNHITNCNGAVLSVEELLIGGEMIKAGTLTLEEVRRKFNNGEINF

T3: GFP1 Right TALEN (synthetic construct)
T3 chain: T1 chain with S119Q, R120W

T4: GFP1 Right NT-G TAL-PBx (synthetic construct)
T4 chain: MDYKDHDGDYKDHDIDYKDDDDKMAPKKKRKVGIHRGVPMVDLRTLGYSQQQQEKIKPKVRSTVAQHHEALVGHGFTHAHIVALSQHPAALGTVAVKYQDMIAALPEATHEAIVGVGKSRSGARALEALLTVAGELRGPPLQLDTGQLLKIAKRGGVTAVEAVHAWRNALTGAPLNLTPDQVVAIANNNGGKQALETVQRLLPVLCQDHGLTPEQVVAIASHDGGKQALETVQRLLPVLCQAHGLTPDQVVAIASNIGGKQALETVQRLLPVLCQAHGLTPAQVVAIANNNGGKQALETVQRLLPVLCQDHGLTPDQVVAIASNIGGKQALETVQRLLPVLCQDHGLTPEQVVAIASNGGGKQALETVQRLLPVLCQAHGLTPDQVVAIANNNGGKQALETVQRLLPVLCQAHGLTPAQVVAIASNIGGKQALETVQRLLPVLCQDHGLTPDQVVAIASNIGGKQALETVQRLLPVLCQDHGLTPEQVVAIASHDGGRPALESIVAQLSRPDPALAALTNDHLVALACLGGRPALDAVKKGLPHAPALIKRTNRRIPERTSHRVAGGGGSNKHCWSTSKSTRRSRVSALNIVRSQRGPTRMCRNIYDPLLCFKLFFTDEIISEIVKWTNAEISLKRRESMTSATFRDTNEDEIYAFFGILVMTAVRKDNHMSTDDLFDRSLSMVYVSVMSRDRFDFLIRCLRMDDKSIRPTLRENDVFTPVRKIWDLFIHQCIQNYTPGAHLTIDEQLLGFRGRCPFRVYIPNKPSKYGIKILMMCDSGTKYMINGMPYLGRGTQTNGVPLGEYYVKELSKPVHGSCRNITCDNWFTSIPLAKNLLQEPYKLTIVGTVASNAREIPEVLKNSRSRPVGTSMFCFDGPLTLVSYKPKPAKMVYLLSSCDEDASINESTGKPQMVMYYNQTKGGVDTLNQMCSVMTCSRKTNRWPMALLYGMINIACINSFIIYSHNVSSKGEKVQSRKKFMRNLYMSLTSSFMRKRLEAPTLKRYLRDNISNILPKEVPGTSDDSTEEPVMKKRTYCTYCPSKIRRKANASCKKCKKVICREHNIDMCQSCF

T5: GFP1 Right NT-betaN TAL-PBx (synthetic construct)
T5 chain: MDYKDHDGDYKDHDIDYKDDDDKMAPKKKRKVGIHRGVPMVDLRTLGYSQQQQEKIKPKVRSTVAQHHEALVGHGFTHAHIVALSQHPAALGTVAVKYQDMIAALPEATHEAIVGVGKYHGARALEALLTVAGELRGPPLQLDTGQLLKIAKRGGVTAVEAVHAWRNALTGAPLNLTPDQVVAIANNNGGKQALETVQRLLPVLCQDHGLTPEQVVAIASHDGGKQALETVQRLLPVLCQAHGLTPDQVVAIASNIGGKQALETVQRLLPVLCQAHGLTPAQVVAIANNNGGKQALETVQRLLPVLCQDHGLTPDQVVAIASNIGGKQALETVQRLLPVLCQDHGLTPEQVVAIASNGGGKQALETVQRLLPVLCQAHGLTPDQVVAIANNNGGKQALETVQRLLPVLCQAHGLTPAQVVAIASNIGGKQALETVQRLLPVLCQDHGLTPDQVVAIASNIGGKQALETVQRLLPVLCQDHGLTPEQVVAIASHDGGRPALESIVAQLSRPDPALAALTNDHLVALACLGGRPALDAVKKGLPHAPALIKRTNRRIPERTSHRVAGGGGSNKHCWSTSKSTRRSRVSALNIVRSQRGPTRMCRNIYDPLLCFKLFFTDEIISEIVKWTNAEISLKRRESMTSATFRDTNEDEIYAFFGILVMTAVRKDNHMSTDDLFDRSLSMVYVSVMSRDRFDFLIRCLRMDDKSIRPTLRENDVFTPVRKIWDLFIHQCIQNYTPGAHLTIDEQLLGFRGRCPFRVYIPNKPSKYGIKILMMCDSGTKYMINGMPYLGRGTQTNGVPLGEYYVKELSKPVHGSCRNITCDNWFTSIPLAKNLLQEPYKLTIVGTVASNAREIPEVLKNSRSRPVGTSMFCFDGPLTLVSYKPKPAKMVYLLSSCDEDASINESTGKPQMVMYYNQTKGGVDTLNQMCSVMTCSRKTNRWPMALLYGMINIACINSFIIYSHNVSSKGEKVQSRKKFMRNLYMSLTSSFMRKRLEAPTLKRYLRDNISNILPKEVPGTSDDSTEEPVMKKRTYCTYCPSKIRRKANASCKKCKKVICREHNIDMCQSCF

B1: GFP1 R SSA site 5'C (dsDNA)
DNA 1: GGCGCAGATGAACGCAAGCTGACCCTGAAGTTCATCTGCGTT
DNA 2: AACGCAGATGAACTTCAGGGTCAGCTTGCGTTCATCTGCGCC
B2: GFP1 R SSA site 5'G (dsDNA)
DNA 1: B1 DNA 1 with C3G, G40C
DNA 2: B1 DNA 2 with C3G, G40C
B3: GFP1 R SSA site 5'A (dsDNA)
DNA 1: B1 DNA 1 with C3A, G40T
DNA 2: B1 DNA 2 with C3A, G40T
B4: GFP1 R+R SSA site (dsDNA)
DNA 1: B1 DNA 1 with C3T, G40A
DNA 2: B1 DNA 2 with C3T, G40A
B5: GFP1R 13 bp 5'G (dsDNA)
DNA 1: GGCAGATGAACGCAATCTCACGGCTTAACTACTGACCTGAAGTTCATCTGCC
DNA 2: GGCAGATGAACTTCAGGTCAGTAGTTAAGCCGTGAGATTGCGTTCATCTGCC

Legend:
GFP1 Right TALEN NT-G = target: T1, GFP1 Right TALEN NT-G; assay: cell_activity; SSA; settings: tags: 3xFlag, SV40 NLS, FokI fusion; chain copies: 2
Protocol: (§1) The TALEN NT-G and NT-ON designs were tested using the single strand annealing reporter (Example 17). The target site corresponding to the GFP1 Right TALEN (SEQ ID NO: 288) was modified to replace T 5′ of the target sites with either an A, a C, or a G to create SEQ ID NOs: 403-405). A transfection mixture containing 90 ng of each TALEN, 10 ng of the corresponding reporter and 1.5p of Transit-2020 transfection reagent in a total volume of 20 μl of Serum Free OptiMem medium were assembled. A TALEN or a reporter were transfected alone as negative controls. An aliquot of 30,000 HEK293T cells in 180 μl of DMEM medium supplemented with 10% FBS was added and the transfection mixture was plated in 96 well plates and incubated for one day at 37° C. at 5% CO2. The following day, a lysis buffer was added to the cells and the lysate was transferred to a white 96 well plate. A buffer containing substrate for Firefly luciferase was mixed with the cells and luciferase luminescence was detected using a plate reader.

[1] = target: T2, GFP1 Right TALEN NT-betaN; assay: cell_activity; SSA; settings: tags: 3xFlag, SV40 NLS, FokI fusion; chain copies: 2
Protocol: as §1

GFP1 Right TALEN = target: T3, GFP1 Right TALEN; assay: cell_activity; SSA; settings: tags: 3xFlag, SV40 NLS, FokI fusion; chain copies: 2
Protocol: as §1

GFP1 Right NT-G TAL-PBx = target: T4, GFP1 Right NT-G TAL-PBx; assay: cell_activity; settings: tags: 3xFlag, SV40 NLS; chain copies: 2
[2] = target: T5, GFP1 Right NT-betaN TAL-PBx; assay: cell_activity; settings: tags: 3xFlag, SV40 NLS; chain copies: 2

Binder | activity (GFP1 Right TALEN NT-G) | activity [1] | activity (GFP1 Right TALEN) | activity (GFP1 Right NT-G TAL-PBx) | activity [2]
B1 | 693000 RLU | 1.12e+06 RLU | 419000 RLU | – | –
B2 | 1.07e+06 RLU | 1.21e+06 RLU | 294000 RLU | – | –
B3 | 1.14e+06 RLU | 1.56e+06 RLU | – | – | –
B4 | 1.21e+06 RLU | 1.45e+06 RLU | – | – | –
B5 | – | – | – | 20.4 % GFP+ | 20.4 % GFP+
